Assay results taken from paper PMC5582868, “BLADE-ON-PETIOLE proteins act in an E3 ubiquitin ligase complex to regulate PHYTOCHROME INTERACTING FACTOR 4 abundance” (eLife, 2017).

B1: His-MBP-BOP2 (protein)
chain: MSNLEESLRSLSLDFLNLLINGQAFSDVTFSVEGRLVHAHRCILAARSLFFRKFFCGTDSPQPVTGIDPTQHGSVPASPTRGSTAPAGIIPVNSVGYEVFLLLLQFLYSGQVSIVPQKHEPRPNCGERGCWHTHCSAAVDLALDTLAASRYFGVEQLALLTQKQLASMVEKASIEDVMKVLIASRKQDMHQLWTTCSHLVAKSGLPPEILAKHLPIDVVTKIEELRLKSSIARRSLMPHNHHHDLSVAQDLEDQKIRRMRRALDSSDVELVKLMVMGEGLNLDESLALHYAVESCSREVVKALLELGAADVNYPAGPAGKTPLHIAAEMVSPDMVAVLLDHHADPNVRTVGGITPLDILRTLTSDFLFKGAVPGLTHIEPNKLRLCLELVQSAAMVISREEGNNSNNQNNDNNTGIYPHMNEEHNSGSSGGSNNNLDSRLVYLNLGAGTGQMGPGRDQGDDHNSQREGMSRHHHHHQDPSTMYHHHHQHHF
B2: His-GST-PIF4 (natural protein, Arabidopsis thaliana, UniProt Q8W2F3 1-430, looked up)
chain: MEHQGWSFEENYSLSTNRRSIRPQDELVELLWRDGQVVLQSQTHREQTQTQKQDHHEEALRSSTFLEDQETVSWIQYPPDEDPFEPDDFSSHFFSTMDPLQRPTSETVKPKSSPEPPQVMVKPKACPDPPPQVMPPPKFRLTNSSSGIRETEMEQYSVTTVGPSHCGSNPSQNDLDVSMSHDRSKNIEEKLNPNASSSSGGSSGCSFGKDIKEMASGRCITTDRKRKRINHTDESVSLSDAIGNKSNQRSGSNRRSRAAEVHNLSERRRRDRINERMKALQELIPHCSKTDKASILDEAIDYLKSLQLQLQVMWMGSGMAAAAASAPMMFPGVQPQQFIRQIQSPVQLPRFPVMDQSAIQNNPGLVCQNPVQNQIISDRFARYIGGFPHMQAATQMQPMEMLRFSSPAGQQSQQPSSVPTKTTDGSRLDH
notes: also called glutathione S-transferase (GST) tagged PIF4; source: Escherichia coli BL21, purified (Ni-NTA Agarose)

Experiments:
His-GST-PIF4 = molecular target: T1, His-GST-PIF4 (Arabidopsis thaliana (Mouse-ear cress), UniProt Q8W2F3); experiment: GST pulldown
T1 chain: B2 chain

His-MBP-BOP2 = molecular target: T2, His-MBP-BOP2 (Arabidopsis thaliana, UniProt Q9ZVC2 1-491); experiment: pull-down; 1 µg GST-PIF4 on Glutathione Sepharose 4B beads; 1 µg MBP or MBP-BOP2 added in 300 µl binding buffer (50 mM Tris-Cl pH 7.6, 100 mM NaCl, 1 mM EDTA, 1% Triton X-100, 0.5 mM DTT, 5% glycerol), 4°C, 2 hr; blot with anti-MBP; conditions: both partners purified
T2 construct: BLADE-ON-PETIOLE 2 (BOP2), Arabidopsis thaliana; source: Escherichia coli BL21, purified (Ni-NTA Agarose)
T2 sequence (looked up): B1 chain

Binder	binding result (His-GST-PIF4)	binding result (His-MBP-BOP2)
B1	binds	
B2		binds
